Results on three substances are retold here after patent US20250051455A1.

A word on the Kd: it is a measure of binding affinity in units of concentration. Usually koff stands for the rate constant with which the complex falls apart. Broadly, the kon is the second-order rate constant of association.

Test [1] deals with recombinant soluble human HLA-G β2M MHC class I complex, monomer (human). Put plainly: SPR, reference antibody against monomeric wt HLA-G.
In test [2] the target is recombinant soluble human HLA-G β2M MHC class I complex, dimer (human). Put plainly: competition ELISA, one antibody concentration; competitor coated ILT2-Fc.
The target of test [3] is recombinant soluble human HLA-G β2M MHC class I complex, monomer (human). The test is described as above.
Test [4] concerns the target recombinant soluble human HLA-G β2M MHC class I complex, trimer (human). The test is described as above.
Test [5] concerns the target recombinant soluble human HLA-G β2M MHC class I complex, dimer (human). Put plainly: competition ELISA, one antibody concentration; competitor coated ILT4-Fc. For orientation: ELISA stands for enzyme-linked immunosorbent assay.
Test [6] has as its target recombinant soluble human HLA-G β2M MHC class I complex, monomer (human). Described as above.
Test [7] addresses recombinant soluble human HLA-G β2M MHC class I complex, trimer (human). Described as above.
In test [8] the target is human HLA-G expressed on cells (JEG3 natural; SKOV3 HLA-G+ and PA-TU-8902 HLA-G+ transfectants) (human) (UniProt P17693). Put plainly: flow cytometry, JEG3 cells pre-incubated with antibody (40 µg/ml final); competitor ILT2-Fc chimera. (In general: A flow cytometer gives signals particle by particle.)
The target in test [9] is modified human HLA-G β2M MHC class I complex (HLA-G specific amino acids replaced by HLA-A consensus amino acids) (human). Put plainly: SPR, reference antibody against degrafted HLA-G. Background: Surface plasmon resonance follows binding to a sensor surface in real time, without labels.

G233 (antibody): in test [1], the Kd turned out to be 0.02 µM. The koff in [1] worked out at 0.0037 s⁻¹. In [1], the kon was found to be 180000 M⁻¹ s⁻¹. Also, the t 1/2 in [1] worked out at 3 min. The % inhibition of ILT2 binding in [2] was -132%; in test [3] it was 12%; in test [4], 3%. In addition, the results for the % inhibition of ILT4 binding in [5], in [6] and in [7] were -20%, -898% and 58%, respectively. In addition, in test [8], the Inhibition of ILT2 binding to Jeg3 cells was -55.8%.
In test [9], MEM-G/11 (antibody) registered a Kd of 0.013 µM, a koff of 0.0012 s⁻¹, a kon of 89000 M⁻¹ s⁻¹ and a t 1/2 of 10 min. Moreover, in test [1], the Kd amounted to 0.012 µM, the koff came out at 0.00085 s⁻¹, the kon was 74000 M⁻¹ s⁻¹ and the t 1/2 was 14 min.
Consider MEM/G9 (antibody), for which the values for the Kd in [9] and in [1] were 0.3 µM and 0.0077 µM, respectively. The koff amounted to 0.036 s⁻¹ in test [9] and 0.0011 s⁻¹ in [1]. Also, the values for the kon in test [9] and in [1] were 120000 M⁻¹ s⁻¹ and 150000 M⁻¹ s⁻¹, respectively. In addition, the t 1/2 in test [9] was 0.3 min; in [1], 10 min. Further, the % inhibition of ILT2 binding is 1% in [2], -442% in [3] and 4% in [4]. The % inhibition of ILT4 binding in test [5] was -44%; in test [6], -14%; in test [7], -40%. Further, the Inhibition of ILT2 binding to Jeg3 cells in [8] was -27.9%.
